The results in this text go back to publication PMC4720517, “Structural basis for activation, assembly and membrane binding of ESCRT-III Snf7 filaments” (eLife, 2015).

First the molecules themselves.
B1: full-length Snf7^(R52E E88C H118C), MTSL-labeled (natural protein, Saccharomyces cerevisiae, UniProt P39929 1-240, looked up)
chain: MWSSLFGWTSSNAKNKESPTKAIVRLREHINLLSKKQSHLRTQITNQENEAEIFLTKGNKVMAKNALKKKKTIEQLLSKVEGTMESMCQQLFSIESANLNLETMRAMQEGAKAMKTICSGLDIDKVDETMDEIREQVELGDEISDAISRPLITGANEVDEDELDEELDMLAQENANQETSKIVNNNVNAAPISENKVSLPSVPSNKIKQSENSVKDGEEEEDEEDEDEKALRELQAEMGL
modifications: MTSL nitroxide spin label on cysteines 88 and 118
notes: Snf7 (Vps32), S. cerevisiae, full length; also called double-labeled Snf7^(R52E E88C H118C); source: E. coli BL21 or C41, purified (TALON, Superdex-200)
B2: full-length Snf7^(R52E K60C A66C), MTSL-labeled (natural protein, Saccharomyces cerevisiae, UniProt P39929 1-240, looked up)
chain: B1 chain with K60C, A66C, C88E, C118H
modifications: MTSL nitroxide spin label on cysteines 60 and 66
notes: Snf7 (Vps32), S. cerevisiae, full length; also called double-labeled Snf7^(R52E K60C A66C); source: E. coli BL21 or C41, purified (TALON, Superdex-200)
B3: full-length Snf7^(R52E R25E H29E K36E) (natural protein, Saccharomyces cerevisiae, UniProt P39929 1-240, looked up)
chain: B1 chain with R25E, H29E, K36E, C88E, C118H
notes: Snf7 (Vps32), S. cerevisiae, full length, charge inversion on α1; source: E. coli BL21 or C41, purified (TALON, Superdex-200)
B4: full-length Snf7^(R52E E88C), MTSL-labeled (natural protein, Saccharomyces cerevisiae, UniProt P39929 1-240, looked up)
chain: B1 chain with C118H
modifications: MTSL nitroxide spin label on cysteine 88
notes: Snf7 (Vps32), S. cerevisiae, full length; source: E. coli BL21 or C41, purified (TALON, Superdex-200)
B5: full-length Snf7^(R52E K35C), MTSL-labeled (natural protein, Saccharomyces cerevisiae, UniProt P39929 1-240, looked up)
chain: B1 chain with K35C, C88E, C118H
modifications: MTSL nitroxide spin label on cysteine 35
notes: as for B4
B6: full-length Snf7^(R52E H118C), MTSL-labeled (natural protein, Saccharomyces cerevisiae, UniProt P39929 1-240, looked up)
chain: B1 chain with C88E
modifications: MTSL nitroxide spin label on cysteine 118
notes: as for B4
B7: full-length Snf7^(R52E G140C), MTSL-labeled (natural protein, Saccharomyces cerevisiae, UniProt P39929 1-240, looked up)
chain: B1 chain with C88E, C118H, G140C
modifications: MTSL nitroxide spin label on cysteine 140
notes: as for B4
B8: full-length Snf7^(R52E T20C), MTSL-labeled (natural protein, Saccharomyces cerevisiae, UniProt P39929 1-240, looked up)
chain: B1 chain with T20C, C88E, C118H
modifications: MTSL nitroxide spin label on cysteine 20
notes: as for B4
B9: full-length Snf7^(R52E K60C), MTSL-labeled (natural protein, Saccharomyces cerevisiae, UniProt P39929 1-240, looked up)
chain: B1 chain with K60C, C88E, C118H
modifications: MTSL nitroxide spin label on cysteine 60
notes: as for B4
B10: full-length Snf7^R52E (natural protein, Saccharomyces cerevisiae, UniProt P39929 1-240, looked up)
chain: B1 chain with C88E, C118H
notes: purification as in Henne et al., 2012; also called unlabeled Snf7^R52E; source: E. coli BL21 or C41, purified (TALON, Superdex-200)
B11: Snf7^core (Saccharomyces cerevisiae Snf7 residues 12-150) (domain or fragment, UniProt P39929 12-150, looked up)
chain: NAKNKESPTKAIVRLREHINLLSKKQSHLRTQITNQENEARIFLTKGNKVMAKNALKKKKTIEQLLSKVEGTMESMEQQLFSIESANLNLETMRAMQEGAKAMKTIHSGLDIDKVDETMDEIREQVELGDEISDAISRP
notes: Snf7 (Vps32), S. cerevisiae, core domain, residues 12-150; One molecule in the asymmetric unit; the protofilament is built by the crystal lattice; also called Snf7 core domain; open conformation A; source: E. coli Rosetta, purified (TALON, Superdex-200); not shown: His6-Sumo, N-terminal, cleaved

Data set [1] concerns the molecule itself. In words: negative stain TEM; recombinant Snf7 proteins, protofilament formation seen by negative stain transmission electron microscopy; as in Henne et al., 2012.
In data set [2] the target is T1, full-length Snf7^(R52E E95K E102K E109K) (Saccharomyces cerevisiae, UniProt P39929 1-240, R52E | E95K | E102K | E109K).
T1 construct: Snf7 (Vps32), S. cerevisiae, full length, charge inversion on α2/3; source: E. coli BL21 or C41, purified (TALON, Superdex-200)
T1 sequence (looked up): B1 chain with C88E, E95K, E102K, E109K, C118H
The data set is described as above. The conditions noted are these: both partners purified.

Data set [3] has as its target B2. In words: DEER (pulsed dipolar ESR spectroscopy); MTSL-labeled full-length Snf7 proteins (10-30 μM), alone or diluted with unlabeled Snf7^R52E, incubated with DOPC/DOPS/PI(3)P liposomes at room temperature for 15 min, pelleted by ultracentrifugation; 150 mM NaCl, 20 mM HEPES pD7.4; DEER at 60 K. The conditions noted are these: both partners purified.
For data set [4], the target named is B1. The data set is described as above. The conditions noted are these: both partners purified.
Data set [5] deals with the molecule itself. In words: crystal structure; Snf7^core crystals, conformation A (2.4 Å) and B (1.6 Å), space group P2_1, one molecule in the asymmetric unit; protofilaments formed in the crystal lattice; grown at pH 5.5 (MES:NaOH, NaCl, PEG20,000), 4 °C.

Changes are numbered by the printed parent chain. Names may count otherwise.

In the case of B1, the binding result in data set [1] was “binds”. Turning to B2, in data set [1], the binding result is “binds”.

B3: the binding result in data set [2] was “binds”. Regarding B4, the binding result in data set [1] is recorded as “binds”. Same read-out and setting: the result for B5 reads “binds”; that for B6, “binds”.

On to B7, for which the binding result in data set [1] is given as “binds”.

As to B8, in data set [1], the binding result was “binds”. Consider B9, for which, in data set [1], the binding result is reported as “binds”. For the molecule B10, the binding result in data set [3], in data set [4] and in data set [1] was “binds” throughout. Regarding B11, the binding result in data set [5] is “binds”.
